Measurements published in US20260217847A1 (published 2026).

B1: anti-humanized TfR1 single-domain antibody-Fc fusion antibody 2H7-hFC1 (Fc fusion)
chain (part 1 of 2): ESGGGLVQPGESLRLSCVASGSIWSIYTMGWYRQAPGKQRDFVASITGDSTRTLESVKDRFIISRDNTKNTLYLQMNSLKPEDTAVYYCQAITSLGEYWGQGTQVTVSS
B2: anti-humanized TfR1 single-domain antibody-Fc fusion antibody 8E10-hFC1 (Fc fusion)
chain (part 1 of 2): ESGGGLVQAGGSLRLSCAFSGPPFSTYGMGWFRQAPGKEREFVATISGSGFTTTYADSVKGRFTISRDNAKNTVYLQMNSLKPGDTAVYYCAAGVLDGTNWHEYDYWGQGTQVTVSS
B3: anti-humanized TfR1 single-domain antibody-Fc fusion antibody 4C5-hFC1 (Fc fusion)
chain (part 1 of 2): ESGGGLVQPGESLRLSCAASGSIWSIYTMGWYRQAPGLQRDFVGSIAREGGRRYAESVKDRFTISRDNAKNTMYLQMNSLKREDTAVYYCNAITSLGEYWGQGTQVTVSS
B4: anti-humanized TfR1 single-domain antibody-Fc fusion antibody 4D11-hFC1 (Fc fusion)
chain (part 1 of 2): ESGGGLVQPGESLRLSCVASGSIWSIYTMGWYRQAPGKQRDFVASITRDSTRTLESVKDRFIISRDNAKNTLYLQMNSLKPEDTAVYYCHAITSLGEYWGQGTQVTVSS
B5: anti-humanized TfR1 single-domain antibody-Fc fusion antibody 7G5-hFC1 (Fc fusion)
chain (part 1 of 2): ESGGGSVQPGGSLRLSCAVSGSIFSIDTMAWYRQAPGKQRELVAAITKGGSRNYADSVKGRFTISRDNAKNTVYLQMNSLKPEDTAVYYCLADRLFRDRSWGQGTQVTVSS
B6: anti-humanized TfR1 single-domain antibody-Fc fusion antibody 7A3-hFC1 (Fc fusion)
chain (part 1 of 2): ESGGGLVQPGESLRLSCVASGSIWSIYTMGWYRQAPGKQRDFVASITRDSGRRYAESVKDRFTISRDNAKNTLYLQTNSLKPEDTAVYYCHAITSLGEYWGQGTQVTVSS
B7: anti-humanized TfR1 single-domain antibody-Fc fusion antibody 5D1-hFC1 (Fc fusion)
chain (part 1 of 2): ESGGGLVQPGESLRLSCVASGSIWSIYTMGWYRQAPGKQRDFVASITRDGGRRHAESVKDRFTISRDNAKNTLYLQMNSLKPEDTAVYSCLAITSLGEYWGQGTQVTVSS
B8: anti-humanized TfR1 single-domain antibody-Fc fusion antibody 7D10-hFC1 (Fc fusion)
chain (part 1 of 2): ESGGGLVQPGGSLRLSCATSGGTFEMYAMAWFRQAPGKDREGVAGFSWRDSSTTYYSDSVKGRFTISRDNAKNTVYLQMNSLKPEDTAVYYCAARPYVSRWSESSGYDYWGQGTQVTVSS
B9: anti-humanized TfR1 single-domain antibody-Fc fusion antibody 7G10-hFC1 (Fc fusion)
chain (part 1 of 2): ESGGGLVQAGASLKLSCNGSGRTFISYAMGWFRQAPGKQREFVAAERWSGSGIYYADSLKGRFTISRDNAKNTVYLEMNNLKPEDTAVYYCAAREGGLLHVATSYDYWGQGTQVTVSS
B10: anti-humanized TfR1 single-domain antibody-Fc fusion antibody 5D3-hFC1 (Fc fusion)
chain (part 1 of 2): ESGGGLVEPGGSLRLSCAASGNIFSINNMYWHRQAPGKQRELVGGITRGGITNYVDSVKGRFTISRDNAKNTVYLQMNSLKPEDTAVYFCNAHPWRLGIADYWGQGTQVTVSS
B11: anti-humanized TfR1 single-domain antibody-Fc fusion antibody 5A3-hFC1 (Fc fusion)
chain (part 1 of 2): ESGGGLVQAGGSLTLSCAVSRRAFNTKAMGWFRQAPGKEREFVATISWSGFSTNYADSVKGRFTISRDNAKNTVYLQMNSLKPGDTAVYYCAAGVLDGTNWHEYDYWGQGTQVTVSS

Target: T1, human recombinant TfR1 protein (amino acids 89-760) (human, UniProt P02786 89-760)
Experiment: ELISA

T1 sequence (P02786 89-760): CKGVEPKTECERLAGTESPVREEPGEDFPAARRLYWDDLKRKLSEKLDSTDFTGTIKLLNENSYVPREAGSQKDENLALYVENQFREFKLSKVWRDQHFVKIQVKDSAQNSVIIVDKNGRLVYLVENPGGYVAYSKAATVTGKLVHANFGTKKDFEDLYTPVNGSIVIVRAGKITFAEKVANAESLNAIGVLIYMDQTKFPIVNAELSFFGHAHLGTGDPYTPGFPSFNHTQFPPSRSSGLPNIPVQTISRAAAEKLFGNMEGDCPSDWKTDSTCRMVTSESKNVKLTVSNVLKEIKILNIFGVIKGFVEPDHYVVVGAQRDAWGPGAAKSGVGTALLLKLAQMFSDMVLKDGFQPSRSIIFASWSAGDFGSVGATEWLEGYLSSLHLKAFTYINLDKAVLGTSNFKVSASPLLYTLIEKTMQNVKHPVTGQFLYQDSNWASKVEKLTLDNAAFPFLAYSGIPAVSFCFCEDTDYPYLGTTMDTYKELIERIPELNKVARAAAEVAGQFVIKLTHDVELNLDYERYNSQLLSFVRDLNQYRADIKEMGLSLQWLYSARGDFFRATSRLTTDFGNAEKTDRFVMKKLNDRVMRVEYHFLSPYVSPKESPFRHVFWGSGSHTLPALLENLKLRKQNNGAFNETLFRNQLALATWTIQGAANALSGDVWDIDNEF

Which EC50 does the source give for B1 here?
The EC50 was 39.6 pM.

With B2 as the binder, how does the EC50 read?
The EC50 was 96.2 pM.

Target: T1, human recombinant TfR1 protein (amino …)
Experiment: ELISA
Remark: another data set of the same source

With B3 as the binder, how does the EC50 read?
Its EC50 is 64.4 pM.

B4 was tested. Which EC50 did it give?
Its EC50 is 59.1 pM.

Target: T1, human recombinant TfR1 protein (amino …)
Experiment: ELISA
Remark: another data set of the same source

How did the EC50 turn out when B5 was run?
The EC50 was 72.4 pM.

For B6, which EC50 is on record?
The EC50 was 52.1 pM.

For B7, which EC50 is on record?
The EC50 was 59.5 pM.

How did the EC50 turn out when B8 was run?
The EC50 was 151 pM.

Which EC50 does the source give for B9 here?
The EC50 was 85.5 pM.

Which EC50 does the source give for B10 here?
Its EC50 is 86.1 pM.

For B11, which EC50 is on record?
Its EC50 is 76.1 pM.
